B1: EV D94 (nucleic acid, listed as Enterovirus sp.)
DNA: CGTGGCGGCCAGTACTCTGGTATCACGGTACCTTTGTACGCCTGTTTTATATCCCCTTCCCCCGCAACTTAGAAGAAAACAAATCAAGTTCACTAGGAGGGGGTACAAACCAGTACCACCACGAACAAGCACTTCTGTTTCCCCGGTGATGTCGTATAGACTGTAACCACGGTTGAAAACGATTGATCCGTTATCCGCTCTTGTACTTCGAAAAGCCCAGTATCACCTTGGAATCTTCGATGCGTTGCGCTCAGCACTCAACCCCAGAGTGTAGCTTAGGTCGATGAGTCTGGACACTCCTCACCGGCGACGGTGGTCCAGGCTGCGTTGGCGGCCTACCTGTGGTCCAAAGCCACAGGACGCTAGTTGTGAACAAGGTGTGAAGAGCCTATTGAGCTACAAGAGAATCCTCCGGCCCCTGAATGCGGCTAATCCTAACCACGGAGCAAGGGTACACAAACCAGTGTATATCTTGTCGTAACGCGCAAGTCTGTGGCGGAACCGACTACTTTGGGTGTCCGTGTTTCCTTTTGTTTTTATCATGGCTGCTTATGGTGACAATCTAAGATTGTTATCATATAGCTGTTGGATTGGCCATCCGGTAATTTATTGAGATTTGAGCATTTGCTTGTTTCTTCAACAATTTCACCTATTCATTGCATTTCAGCAGTCAAA
B2: EV C102 (nucleic acid, listed as Enterovirus sp.)
DNA: CTTTGTACGCCTGTTTTACATCCCCTCCCCCACGTAACTTTAGAAGCAATTCAACAAGTTCAATAGAGGGGGTACAAACCAGTATCACCACGAACAAGCACTTCTGTTTCCCCGGTGATTTTACATAAGCTGTGCCCACGGCTGAAAGTGAATGATCCGTTACCCGCTCGAGTACTTCGAAAAGCCTAGTATCGCTTTGGGATCTTCGACGCGTTGCGCTCAGCACTCTACCCCGAGTGTAGCTTAGGCTGATGAGTCTGGGCATTCCCCATCGGCGACGATGGCCCAGGCTGCGTTGGCGGCCTACCCATGGCTAACGCCATGGGACGCTAGTTGTGAACAAGGTGTGAAGAGCCTATTGAGCTACTCGAGAGTCCTCCGGCCCCTGAATGCGGCTAATCCCAACCACGGATCAGGTGCCTCCAACCCAGGAGGTGGCCTGTCGTAACGCGCAAGTCTGTGGCGGAACCGACTACTTTGGGTGTCCGTGTTTCCTTTTATCTTTTAAATGGCTGCTTATGGTGACAATCATAGATTGTTATCATAAAGCGAATTGGATTGGCCATCCGGTGAAATACAAACACATTATTTACTTGTTTGTTGGATTTACTCCGCTCACACAGCTTACTCCTAAGATAATATTTATTGTATTGCTGGTAAGGAGACACTATTATA
B3: EV 30 (nucleic acid, listed as Enterovirus sp.)
DNA: AAGCAAGGCAAACCTGACCAATAGTAGGTGTGGCACACCAGCCGCATTTTGGTCAAGCACTTCTGTTTCCCCGGACCGAGTATCAATAAGCTGCTCACGCGGCTGAAGGAGAAACCGTTCGTTACCCGACCAGCTACTTCGAGAAACCTAGTAACACTATGAACGTTGCGGAGTGTTTCGTTCAGCACTTCCCCCGTGTAGATCAGGTCGATGAGTCACCGCATTCCTCACGGGTGACCGTGGCGGTGGCTGCGTTGGCGGCCTGCCTACGGGTTCGCCCGTAGGACGCTCTAATACCGACATGGTGTGAAGAGTCCATTGAGCTAGCTGGTAGTCCTCCGGCCCCTGAATGCGGCTAATCCTAACTGCGGAGCAGGTGCTCACAGACCAGTGAGTAGCCTGTCGTAACGGGCAACTCTGCAGCGGAACCGACTACTTTGGGTGTTTTTCCTTTTTTCTTCTCTTATATTGGCTGCTTATGGTGACAATTAAAGAATTGTTACCATATAGCTATTGGATTGGCCATCCGGTGACGAGCAGAGCCATTGTTTACCTCTTTGTTGGATTTGTACCTTTGAACCACAAAGTCTTGAATACCATTCATCTCATTTTAAAGTTCAACTCAGCTAAAAGAAA
B4: EV F1 BEV 261 (nucleic acid, listed as Enterovirus sp.)
DNA: GCAATGCTGCACCAGTGCACTGGTACGCTAGTACCTTTTCACGGAGTAGATGGTATCCCTTACCCCGGAACCTAGAAGATTGCACACAAACCGACCAATAGGCGCACCGCATCCAGCCGTGCAGCGGTCAAGCACTTCTGTCTCCCCGGTCTGTAAAGATCGTTATCCGCCCGACCCACTACGAAAAGCCTAGTAACTGGCCAAGTGAACGCGAAGTTGCGCTCCGCCACAACCCCAGTGGTAGCTCTGGAAGATGGGGCTCGCACCACCCCCGTGGTAACACGGTTGCCTGCCCGCGTGTGCTTCCGGGTTCGGTCTCGTGCCGTTCACTTCAACTTCACGCAACCAGCCAAGAGCCTATTGTGCTGGGACGGTTTTCCTCCGGGGCCGTGAATGCTGCTAATCCCAACCTCCGAGCGTGTGCGCACAATCCAGTGTTGCTACGTCGTAACGCGTAAGTTGGAGGCGGAACAGACTACTTTCGGTACCCCGTGTTTCCTCTCATTTTATTTAATATTTTATGGTGACAATTGTTGAGATTTGCGCTCTTGCAACGTTGCCATTGAATATTGGCTTATACTATTTGGTTGCCTTTTACAAAACCTCTGATATACCCAGTTCTTACATTGATCTGCTTGTTTTTCTCAATTTGAAGTATAGACTACAAATAGCAAA
B5: SA5 (nucleic acid)
DNA: AGTACTTGGTATTCCGGTACCTTTGTACACCTATTTACAAACCCTACCCCTTGTAACCTTAGAAGCAATTATTTAACCGCTCACTAGGGGGTGTGCTATCCAAGCACATCAAGAGCAAGCACTTCTGTCTCCCCGGGAGGGGCTAATGGTACGCTGTGCCCACGGCGGAAATGAGCCCTACCGTTAACCGGCAGTCTACTTCGGGAAGCCCAGTAACTACATTGAAACTTTGAGGCGTTACACTCAGCACATAACCCCAATGTGTAGTTCTGGTCGATGAGCCTTGGCATCCCCCACAGGCGACTGTGGCCAAGGCTGCGTTGGCGGCCAGCCTGCGGACCAAAAGTCCGTAGGACGCCTAATTGTGGACATGGTGTGAAGAGCCTACTGAGCTAGACTGTAGTCCTCCGGCCCCTGAATGCGGCTAATCCTAACCCTGGAGCATCCGCGTGCAACCCAGTACGTAGGGTGTCGTAATGCGTAAGTCTGGGATGGAACCGACTACTTTGGGTGTCCGTGTTTCTTGTTTTTCATACTGGGTCGCTTATGGTTACAACTAATTGTTGTAATCATTGGCAGTGCGCGCTGACCACGCGATTATTGATATTTCCATTTGTTGGATACTCCAATAGTGTCAACTCATATACACAACTTTTACCACTGATCAAGATAAAA
B6: EV I (nucleic acid)
DNA: TTAGTACTTTCTCACGGGGATAGTGGTATCCCTCCCTAGTAATTTAGAAGACTTGAAAAACCGACCAATAGGCACCTCGCATCCAGCGGGGTAAAGGTCAAGCACTTCTGTTTCCCCGGGTCGAGTAGCGATAGACTGTGCCCACGGTCGAAGGTGAAACAACCCGTTATCCGACTTTGTACTTCGGGAAGCCTAGTACCACCAAAGATTATGCTTGGGGTTTCGCTCAGCACGACCCTGGTGTAGATCAGGCCGATGGATCACCGCATTCCTCACAGGCGACTGTGGCGGTGGTCGCGTGGCAGCCTGCCGATGGGGCAACCCATCGGACGCCAAGCATATGACAGGGTGTGAAGAGCCTACTGAGCTACAAAGTATTCCTCCGGCCCCTGAATGCGGCTAATCCCAACCACGGAGCATTTGCTACCAAACCAGGTAGTGGAATGTCGTAACGGGTAACTCTGTGGCGGAACCGACTACTTTGGGTGTCCGTGTTTCCTTTTAATTTATCATTCTGTATATGGTGACAACTATAGTGCTATCTCGATTTGCATTACTATTGTTGAGATTAAAACTTTATTACATTGTTGCATTTTACCCTTTGAGTGAGTTTTCACCTGAACAGATTAATTTACTCATCCTGTTTATATATTACAAGCAGAAATACTTGCAAAG
modifications: Enterovirus I
B7: EV J N125 (nucleic acid, listed as Enterovirus sp.)
DNA: CGGTACCTTTGTACGCCTATTTTACCCCCTTCCCCTTGTAACTTAGAAGCAAAGCAAACCAGTTCAATAGTAAGCAACACAACCCAGTGTTGTGACGAACAAGTACTTCTGTTTCCCCGGGAGGGTCTGACGGTAAGCTGTACCCACGGCTGAAGTATGACCTACCGTTAACCGGCTACCTACTTCGAGAAGTCTAGTAATACCATTGAAGTTTTGTTGGCGTTACGCTCAACACACTACCCCGTGTGTAGTTTTGGCTGATGAGTCACGGCATTCCCCACGGGCGACCGTGGCCGTGGCTGCGTTGCGGCCAACCAAGGGGCGCAAGCTCCTTGGACGTCACTTAACAGACATGGTGTGAAGAACCTATTGAGCTAGGTAGTAGTCCTCCGGCCCCTGAATGCGGCTAATCCTAACTCCGGAGCACATCAGTGCAACCCAGCATTTGGTGTGTTGTAATACGCAAGTCTGGAGCGGAACCGACTACTTTGGGTGTCCGTGTTTCCTGTTTTACCTTATTTGGCTGCTTATGGTGACAATTTGATATTGTTACCATATAGCTGTTGGATTGGCCATCCGGATTTTTGAAAGAGACCCAAAACTTTCTTCTCTACTTCAGATTCAAGTGCGAAGTTTTCCTTTTCATATATTACTTACTAATTTGAAGTACCAAAG
B8: EV J 1631 (nucleic acid, listed as Enterovirus sp.)
DNA: CACCCTGAGGGCCCACGTGGCGTAGTACTCTGGTATCAAGGTACCTTTGTACGCCTATTTTATTTCCCTTCCCCCACAGTAACTTAGAAGCTTATCTCATAGTTCAACAGTAGGGTCACTAACCAAGTGGCTCAGCGAACAAGCACTTCTGTTTCCCCGGTCCTAGTACCTGTGAAGCTGTACCCACGGCGGAAGGGGAAAAAGATCGTTATCCGGCCCCCTACTTCGGAAAGCCTAGTAACACCATTGAAGCAATCGAGTGTTGCGCTCAGCACAGTAACCCCTGTGTAGCTTTGGTTGATGAGTCTGGGCACTCCCCACTGGCGACAGCGGCCCAGGCTGCGTTGGCGGCCAACCGACTCGGGCAACCGGGTCGGACGCTCGTTTGTGGACATGGTGTGAAGAGCCTACTGAGCTAGAGGGTAGTCCTCCGGCCCCTGAATGCGGATAATCCTAACCCCGGAGCACCCACACTCAATCCAGAGTGCAGGATGTCGTAACGCGTAAGTCTGGGACGGAACCGACTACTTTGGGTGTCCGTGTTTCCTGTTTTACTTACTTTGGCTGCTTATGGTGACAATCTAGTGTTGTTACCATATAGCTATTGGATTGGCCATCCGGTGTTTTGAATTGTGTGTTTATACTAATTCTTTTACATATCACAGACAACCAAAT

The series concerns HEK293 cells. It counts as cell-based, human. To be noted: luminescence from secreted Gluc in supernatant 24 hours after transfection of HEK293 cells; circular RNA encoding Gluc with the named IRES (UTR truncated to 675 nt).
Molecule B1 returned an Expression of 9.25E+07.

B2 gave an Expression of 8.85E+07.

In turn, B3 showed an Expression of 5.48E+06.

Take B4: the Expression is recorded as 1.12E+07.

Take B5: the Expression worked out at 1.61E+08.

In the case of B6, the Expression worked out at 1.31E+08.

The molecule B7 had an Expression of 2.90E+07.

With B8, the Expression is 9.88E+07.
